Reference: patent US11653679B2, “High-purity steviol glycosides” (PureCircle Sdn Bhd, priority 2014, dated 2023)

B1: UGT76G1var7: UGT76G1 variant, mutations F22L_I43V_A239V (protein, UniProt Q6VAB4 1-458, looked up, variant F22L I43V A239V)
UDP-glycosyltransferase 76G1: MENKTETTVRRRRRIILFPVPLQGHINPILQLANVLYSKGFSVTIFHTNFNKPKTSNYPHFTFRFILDNDPQDERISNLPTHGPLAGMRIPIINEHGADELRRELELLMLASEEDEEVSCLITDALWYFAQSVADSLNLRRLVLMTSSLFNFHAHVSLPQFDELGYLDPDDKTRLEEQASGFPMLKVKDIKSAYSNWQILKEILGKMIKQTKASSGVIWNSFKELEESELETVIREIPVPSFLIPLPKHLTASSSSLLDHDRTVFQWLDQQPPSSVLYVSFGSTSEVDEKDFLEIARGLVDSKQSFLWVVRPGFVKGSTWVEPLPDGFLGERGRIVKWVPQQEVLAHGAIGAFWTHSGWNSTLESVCEGVPMIFSDFGLDQPLNARYMSDVLKVGVYLENGWERGEIANAIRRVMVDEEGEYIRQNARVLKQKADVSLMKGGSSYESLESLVSYISSL
B2: UGT76G1var8: UGT76G1 variant, mutations E224A_Q266S_Q342E (protein, UniProt Q6VAB4 1-458, looked up, variant E224A Q266S Q342E)
UDP-glycosyltransferase 76G1: MENKTETTVRRRRRIILFPVPFQGHINPILQLANVLYSKGFSITIFHTNFNKPKTSNYPHFTFRFILDNDPQDERISNLPTHGPLAGMRIPIINEHGADELRRELELLMLASEEDEEVSCLITDALWYFAQSVADSLNLRRLVLMTSSLFNFHAHVSLPQFDELGYLDPDDKTRLEEQASGFPMLKVKDIKSAYSNWQILKEILGKMIKQTKASSGVIWNSFKALEESELETVIREIPAPSFLIPLPKHLTASSSSLLDHDRTVFSWLDQQPPSSVLYVSFGSTSEVDEKDFLEIARGLVDSKQSFLWVVRPGFVKGSTWVEPLPDGFLGERGRIVKWVPQEEVLAHGAIGAFWTHSGWNSTLESVCEGVPMIFSDFGLDQPLNARYMSDVLKVGVYLENGWERGEIANAIRRVMVDEEGEYIRQNARVLKQKADVSLMKGGSSYESLESLVSYISSL
B3: UGT76G1var9: UGT76G1 variant, mutations E231A_D301N_G348P (protein, UniProt Q6VAB4 1-458, looked up, variant E231A D301N G348P)
UDP-glycosyltransferase 76G1: MENKTETTVRRRRRIILFPVPFQGHINPILQLANVLYSKGFSITIFHTNFNKPKTSNYPHFTFRFILDNDPQDERISNLPTHGPLAGMRIPIINEHGADELRRELELLMLASEEDEEVSCLITDALWYFAQSVADSLNLRRLVLMTSSLFNFHAHVSLPQFDELGYLDPDDKTRLEEQASGFPMLKVKDIKSAYSNWQILKEILGKMIKQTKASSGVIWNSFKELEESELATVIREIPAPSFLIPLPKHLTASSSSLLDHDRTVFQWLDQQPPSSVLYVSFGSTSEVDEKDFLEIARGLVNSKQSFLWVVRPGFVKGSTWVEPLPDGFLGERGRIVKWVPQQEVLAHPAIGAFWTHSGWNSTLESVCEGVPMIFSDFGLDQPLNARYMSDVLKVGVYLENGWERGEIANAIRRVMVDEEGEYIRQNARVLKQKADVSLMKGGSSYESLESLVSYISSL
B4: UGT76G1var10: UGT76G1 variant, mutations A33G_L246F_Q342E (protein, UniProt Q6VAB4 1-458, looked up, variant A33G L246F Q342E)
UDP-glycosyltransferase 76G1: MENKTETTVRRRRRIILFPVPFQGHINPILQLGNVLYSKGFSITIFHTNFNKPKTSNYPHFTFRFILDNDPQDERISNLPTHGPLAGMRIPIINEHGADELRRELELLMLASEEDEEVSCLITDALWYFAQSVADSLNLRRLVLMTSSLFNFHAHVSLPQFDELGYLDPDDKTRLEEQASGFPMLKVKDIKSAYSNWQILKEILGKMIKQTKASSGVIWNSFKELEESELETVIREIPAPSFLIPFPKHLTASSSSLLDHDRTVFQWLDQQPPSSVLYVSFGSTSEVDEKDFLEIARGLVDSKQSFLWVVRPGFVKGSTWVEPLPDGFLGERGRIVKWVPQEEVLAHGAIGAFWTHSGWNSTLESVCEGVPMIFSDFGLDQPLNARYMSDVLKVGVYLENGWERGEIANAIRRVMVDEEGEYIRQNARVLKQKADVSLMKGGSSYESLESLVSYISSL
B5: UGT76G1var11: UGT76G1 variant, mutations F22L_A33G_V310I (protein, UniProt Q6VAB4 1-458, looked up, variant F22L A33G V310I)
UDP-glycosyltransferase 76G1: MENKTETTVRRRRRIILFPVPLQGHINPILQLGNVLYSKGFSITIFHTNFNKPKTSNYPHFTFRFILDNDPQDERISNLPTHGPLAGMRIPIINEHGADELRRELELLMLASEEDEEVSCLITDALWYFAQSVADSLNLRRLVLMTSSLFNFHAHVSLPQFDELGYLDPDDKTRLEEQASGFPMLKVKDIKSAYSNWQILKEILGKMIKQTKASSGVIWNSFKELEESELETVIREIPAPSFLIPLPKHLTASSSSLLDHDRTVFQWLDQQPPSSVLYVSFGSTSEVDEKDFLEIARGLVDSKQSFLWVIRPGFVKGSTWVEPLPDGFLGERGRIVKWVPQQEVLAHGAIGAFWTHSGWNSTLESVCEGVPMIFSDFGLDQPLNARYMSDVLKVGVYLENGWERGEIANAIRRVMVDEEGEYIRQNARVLKQKADVSLMKGGSSYESLESLVSYISSL
B6: UGT76G1var12: UGT76G1 variant, mutations L243P_K303G_A352G (protein, UniProt Q6VAB4 1-458, looked up, variant L243P K303G A352G)
UDP-glycosyltransferase 76G1: MENKTETTVRRRRRIILFPVPFQGHINPILQLANVLYSKGFSITIFHTNFNKPKTSNYPHFTFRFILDNDPQDERISNLPTHGPLAGMRIPIINEHGADELRRELELLMLASEEDEEVSCLITDALWYFAQSVADSLNLRRLVLMTSSLFNFHAHVSLPQFDELGYLDPDDKTRLEEQASGFPMLKVKDIKSAYSNWQILKEILGKMIKQTKASSGVIWNSFKELEESELETVIREIPAPSFPIPLPKHLTASSSSLLDHDRTVFQWLDQQPPSSVLYVSFGSTSEVDEKDFLEIARGLVDSGQSFLWVVRPGFVKGSTWVEPLPDGFLGERGRIVKWVPQQEVLAHGAIGGFWTHSGWNSTLESVCEGVPMIFSDFGLDQPLNARYMSDVLKVGVYLENGWERGEIANAIRRVMVDEEGEYIRQNARVLKQKADVSLMKGGSSYESLESLVSYISSL
B7: UGT76G1var13: UGT76G1 variant, mutations L243A_S357C_A385T (protein, UniProt Q6VAB4 1-458, looked up, variant L243A S357C A385T)
UDP-glycosyltransferase 76G1: MENKTETTVRRRRRIILFPVPFQGHINPILQLANVLYSKGFSITIFHTNFNKPKTSNYPHFTFRFILDNDPQDERISNLPTHGPLAGMRIPIINEHGADELRRELELLMLASEEDEEVSCLITDALWYFAQSVADSLNLRRLVLMTSSLFNFHAHVSLPQFDELGYLDPDDKTRLEEQASGFPMLKVKDIKSAYSNWQILKEILGKMIKQTKASSGVIWNSFKELEESELETVIREIPAPSFAIPLPKHLTASSSSLLDHDRTVFQWLDQQPPSSVLYVSFGSTSEVDEKDFLEIARGLVDSKQSFLWVVRPGFVKGSTWVEPLPDGFLGERGRIVKWVPQQEVLAHGAIGAFWTHCGWNSTLESVCEGVPMIFSDFGLDQPLNTRYMSDVLKVGVYLENGWERGEIANAIRRVMVDEEGEYIRQNARVLKQKADVSLMKGGSSYESLESLVSYISSL
B8: UGT76G1var14: UGT76G1 variant, mutations A239I_F265I_V396F (protein, UniProt Q6VAB4 1-458, looked up, variant A239I F265I V396F)
UDP-glycosyltransferase 76G1: MENKTETTVRRRRRIILFPVPFQGHINPILQLANVLYSKGFSITIFHTNFNKPKTSNYPHFTFRFILDNDPQDERISNLPTHGPLAGMRIPIINEHGADELRRELELLMLASEEDEEVSCLITDALWYFAQSVADSLNLRRLVLMTSSLFNFHAHVSLPQFDELGYLDPDDKTRLEEQASGFPMLKVKDIKSAYSNWQILKEILGKMIKQTKASSGVIWNSFKELEESELETVIREIPIPSFLIPLPKHLTASSSSLLDHDRTVIQWLDQQPPSSVLYVSFGSTSEVDEKDFLEIARGLVDSKQSFLWVVRPGFVKGSTWVEPLPDGFLGERGRIVKWVPQQEVLAHGAIGAFWTHSGWNSTLESVCEGVPMIFSDFGLDQPLNARYMSDVLKVGFYLENGWERGEIANAIRRVMVDEEGEYIRQNARVLKQKADVSLMKGGSSYESLESLVSYISSL
B9: UGT76G1var15: UGT76G1 variant, mutations F41L_L246F_Q425E (protein, UniProt Q6VAB4 1-458, looked up, variant F41L L246F Q425E)
UDP-glycosyltransferase 76G1: MENKTETTVRRRRRIILFPVPFQGHINPILQLANVLYSKGLSITIFHTNFNKPKTSNYPHFTFRFILDNDPQDERISNLPTHGPLAGMRIPIINEHGADELRRELELLMLASEEDEEVSCLITDALWYFAQSVADSLNLRRLVLMTSSLFNFHAHVSLPQFDELGYLDPDDKTRLEEQASGFPMLKVKDIKSAYSNWQILKEILGKMIKQTKASSGVIWNSFKELEESELETVIREIPAPSFLIPFPKHLTASSSSLLDHDRTVFQWLDQQPPSSVLYVSFGSTSEVDEKDFLEIARGLVDSKQSFLWVVRPGFVKGSTWVEPLPDGFLGERGRIVKWVPQQEVLAHGAIGAFWTHSGWNSTLESVCEGVPMIFSDFGLDQPLNARYMSDVLKVGVYLENGWERGEIANAIRRVMVDEEGEYIRENARVLKQKADVSLMKGGSSYESLESLVSYISSL
B10: UGT76G1var16: UGT76G1 variant, mutations F265I_P272A_I335V (protein, UniProt Q6VAB4 1-458, looked up, variant F265I P272A I335V)
UDP-glycosyltransferase 76G1: MENKTETTVRRRRRIILFPVPFQGHINPILQLANVLYSKGFSITIFHTNFNKPKTSNYPHFTFRFILDNDPQDERISNLPTHGPLAGMRIPIINEHGADELRRELELLMLASEEDEEVSCLITDALWYFAQSVADSLNLRRLVLMTSSLFNFHAHVSLPQFDELGYLDPDDKTRLEEQASGFPMLKVKDIKSAYSNWQILKEILGKMIKQTKASSGVIWNSFKELEESELETVIREIPAPSFLIPLPKHLTASSSSLLDHDRTVIQWLDQQAPSSVLYVSFGSTSEVDEKDFLEIARGLVDSKQSFLWVVRPGFVKGSTWVEPLPDGFLGERGRVVKWVPQQEVLAHGAIGAFWTHSGWNSTLESVCEGVPMIFSDFGLDQPLNARYMSDVLKVGVYLENGWERGEIANAIRRVMVDEEGEYIRQNARVLKQKADVSLMKGGSSYESLESLVSYISSL

Assay: Directed evolution of UGT76G1, Rebaudioside D to Rebaudioside M, round 1 (Example 26)
Type: biochemical
Details: 100 μL fresh lysate, 0.5 mM Rebaudioside D, 30° C., pH 7.2
Description: Lysis was performed by addition of Bugbuster® Master mix (Novagen®) to the thawed cells and the lysate was recovered by centrifugation. Activity tests were performed with 100 μL of fresh lysate that was added to a solution of Rebaudioside D (final concentration 0.5 mM), MgCl2 (final concentration 3 mM) and UDP-Glucose (final concentration 2.5 mM) in 50 mM phosphate buffer pH 7.2.
The reaction was allowed to run at 30° C. and samples were taken after 2, 4, 7 and 24 h. to determine conversion and initial rate by HPLC (CAD detection) using the analytical method that was described above for the transformation of Rebaudioside D to Rebaudioside M. The results are depicted in the following table.

In order of rising “conversion Reb D to Reb M after 24 h” value:
1. B1  0.2%
2. B7  0.2%
3. B4  0.3%
4. B5  0.4%
5. B2  0.5%
6. B6  0.5%
7. B8  5.3%
8. B9  5.6%
9. B3  52.0%

In order of rising initial rate:
1. B1  −6.0E+04 Reb M area/min
2. B7  −3.3E+04 Reb M area/min
3. B4  −7.7E+02 Reb M area/min
4. B2  2.3E+04 Reb M area/min
5. B5  3.8E+04 Reb M area/min
6. B6  8.7E+04 Reb M area/min
7. B8  1.5E+06 Reb M area/min
8. B9  1.5E+06 Reb M area/min
9. B10  5.8E+06 Reb M area/min
10. B3  4.9E+07 Reb M area/min
